Here are results for one molecule from paper PMC4312099 (Nature, 2014).

The target of this assay is recombinant human core Mitotic Checkpoint Complex (untagged CDC20, SBP-BUBR1, His6-MAD2) (human, UniProt Q12834;O60566;Q13257). The assay is described as follows: pull-down.
Chain of recombinant human core Mitotic Checkpoint Complex (untagged CDC20, SBP-BUBR1, His6-MAD2) (O60566 whole entry, chain 2 of 2): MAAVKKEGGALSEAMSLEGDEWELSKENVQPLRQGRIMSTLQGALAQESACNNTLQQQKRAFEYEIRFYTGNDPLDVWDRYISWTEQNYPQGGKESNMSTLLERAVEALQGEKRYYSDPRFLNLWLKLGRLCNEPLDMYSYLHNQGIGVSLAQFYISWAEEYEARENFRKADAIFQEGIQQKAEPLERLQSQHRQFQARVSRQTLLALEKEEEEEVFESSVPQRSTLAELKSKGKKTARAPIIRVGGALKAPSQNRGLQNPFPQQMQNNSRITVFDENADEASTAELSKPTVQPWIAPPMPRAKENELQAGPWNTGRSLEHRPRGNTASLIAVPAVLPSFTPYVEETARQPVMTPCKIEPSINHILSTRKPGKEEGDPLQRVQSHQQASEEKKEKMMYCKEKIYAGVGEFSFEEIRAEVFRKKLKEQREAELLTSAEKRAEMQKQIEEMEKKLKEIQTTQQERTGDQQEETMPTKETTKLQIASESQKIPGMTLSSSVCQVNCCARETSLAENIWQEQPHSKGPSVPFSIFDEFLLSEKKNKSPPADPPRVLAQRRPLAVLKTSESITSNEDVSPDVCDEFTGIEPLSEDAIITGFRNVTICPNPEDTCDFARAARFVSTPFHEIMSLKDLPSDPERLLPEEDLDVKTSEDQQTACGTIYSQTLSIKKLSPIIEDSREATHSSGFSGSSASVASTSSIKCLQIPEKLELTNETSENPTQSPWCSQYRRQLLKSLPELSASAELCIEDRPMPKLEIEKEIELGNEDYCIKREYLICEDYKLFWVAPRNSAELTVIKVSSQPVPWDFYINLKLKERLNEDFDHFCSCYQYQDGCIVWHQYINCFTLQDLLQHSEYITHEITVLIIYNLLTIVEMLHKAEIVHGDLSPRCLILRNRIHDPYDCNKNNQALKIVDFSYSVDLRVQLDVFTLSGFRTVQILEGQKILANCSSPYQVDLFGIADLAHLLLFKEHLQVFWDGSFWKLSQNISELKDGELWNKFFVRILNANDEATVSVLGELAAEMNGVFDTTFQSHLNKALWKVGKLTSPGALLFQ
Chain of recombinant human core Mitotic Checkpoint Complex (untagged CDC20, SBP-BUBR1, His6-MAD2) (Q13257 whole entry, chain 3 of 2): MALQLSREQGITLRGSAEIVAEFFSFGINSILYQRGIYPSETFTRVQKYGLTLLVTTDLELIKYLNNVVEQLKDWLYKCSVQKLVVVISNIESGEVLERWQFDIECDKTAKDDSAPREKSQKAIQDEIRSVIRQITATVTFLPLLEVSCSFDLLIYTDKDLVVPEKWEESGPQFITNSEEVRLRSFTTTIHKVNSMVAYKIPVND

B1: recombinant His6-tagged CDC20 ΔKILR (K129ILR/AAAA) mutant (natural protein)
chain: MAQFAFESDLHSLLQLDAPIPNAPPARWQRKAKEAAGPAPSPMRAANRSHSAGRTPGRTPGKSSSKVQTTPSKPGGDRYIPHRSAAQMEVASFLLSKENQPENSQTPTKKEHQKAWALNLNGFDVEEAAAAALSGKPQNAPEGYQNRLKVLYSQKATPGSSRKTCRYIPSLPDRILDAPEIRNDYYLNLVDWSSGNVLAVALDNSVYLWSASSGDILQLLQMEQPGEYISSVAWIKEGNYLAVGTSSAEVQLWDVQQQKRLRNMTSHSARVGSLSWNSYILSSGSRSGHIHHHDVRVAEHHVATLSGHSQEVCGLRWAPDGRHLASGGNDNLVNVWPSAPGEGGWVPLQTFTQHQGAVKAVAWCPWQSNVLATGGGTSDRHIRIWNVCSGACLSAVDAHSQVCSILWSPHYKELISGHGFAQNQLVIWKYPTMAKVAELKGHTSRVLSLTMSPDGATVASAAADETLRLWRCFELDPARRREREKASAAKSSLIHQGIR
Regarding B1, the binding result is “binds”.
